Test results reported in patent US20090275502A1, “METHODS AND COMPOSITIONS FOR ENHANCING DEVELOPMENTAL POTENTIAL OF OOCYTES AND PREIMPLANTATION EMBRYOS” (MOUNT SINAI HOSPITAL, priority 2005, published 2009).

Legend:
Assay type in all cases: cell-based, mouse
[1] = system: FVB oocytes; test: Reactive oxygen species (H2DCFDA) content of FVB oocytes; conditions: co-treatment of FVB oocytes; inhibitor 2 μg ml^−1, 30 min; data not shown
Protocol: Reduced glutathione (GSH) content: Quantitation of cellular GSH was assayed by use of monochlorobimane (Molecular Probes, Eugene, Oreg.), a cell-permeant dye that becomes fluorescent upon conjugation to thiol groups (Nasr-Esfahani and Johnson 1992). One group of untreated oocytes served as a control for measuring baseline GSH levels, whereas two other groups of oocytes were treated with I mM hydrogen peroxide (Sigma). For the latter, one group was exposed to hydrogen peroxide for 90 min (oxidative insult) whereas the second group was incubated with hydrogen peroxide for 30 min and transferred to fresh culture medium without hydrogen peroxide for an additional 60 min (recovery after oxidative insult). During the last 15 min of incubation, monochlorobimane was added to a final concentration of 1 mM, after which the oocytes were washed in fresh culture medium. Imaging and micrograph analyses were then conducted using a deconvolution microscope equipped with a cyan fluorescent protein filter. The average fluorescence intensities were tabulated on a per oocyte basis, and the data were then compiled per group. Reactive oxygen species: Formation of ROS was determined through the use of 2′,7′-dichlorodihydrofluorescein diacetate (H2DCFDA; Molecular Probes) as described (Yang et al. 1998). The H2DCFDA dye is membrane permeant, and upon entering the cell the acetate groups are hydrolyzed, creating a membrane impermeant form of the dye (H2DCF). Endogenous ROS oxidize this polar form of the dye to a quantifiable fluorogenic compound (DCF). Oocytes were mixed with a freshly prepared solution of 0.01 M H2DCFDA and incubated for 15 min. After extensive washing in fresh culture medium, imaging was carried out using a deconvolution microscope with a FITC filter. Total light intensity for each optical section and average light intensity for each oocyte were determined using the Delta Vision Software Analysis program. In order to determine baseline fluorescence, control oocytes (unstained) were incubated with an appropriate volume of vehicle (DMSO) prior to imaging. […]

[2] = system: B6C3F1 oocytes; test: Apoptosis in cultured B6C3F1 oocytes after microinjection
Protocol: (§1) Oocyte isolation and culture: Oocytes were collected after superovulation as described (Perez et al. 1997; Perez et al. 1999; Morita et al. 2000). Briefly, ovulated oocytes were denuded of cumulus cells by a 1-min incubation in 80 IU ml of hyaluronidase (Sigma, St. Louis, Mo.), followed by three washes with culture medium. All cultures were carried out in human tubal fluid (Irvine Scientific, Santa Ana, Calif.) supplemented with 0.5% BSA. The oocytes were maintained in 0.1 ml drops of culture medium under paraffin oil, and incubated at 37° C. in a humidified atmosphere of 5% CO2 and 95% air.
(§2) In-vitrofertilization and embryo culture: Female mice were superovulated as described above and cumulus-oocyte complexes from the indicated strains were mixed with capacitated sperm collected from adult male mice of the respective strain for in-vitro fertilization (Morita et al. 2000). […] Since zygotes progress to the blastocyst stage of development within 96 h and begin hatching, embryos were fixed at this time and stained with the DNA-binding dye Hoechst 33342 (Sigma) for light and fluorescence microscopic analysis of blastocyst cell number and quality. […] Analysis of DNA “comets” to generate quantitative data on the percent of undamaged versus damaged DNA was performed using the VisComet program (Impuls Computergestutzte Bildanalyse GmbH, Gilching, Germany). […]

[3] = system: FVB oocytes; test: Electron microscopy of mitochondrial ultrastructure in FVB oocytes; conditions: 10 mM, 3 h; versus vehicle
Protocol: Electron microscopy: Oocytes were cultured without or with pyruvate (10 mM) for 3 h prior to being fixed for EM tomography. The oocytes were embedded in agarose and prepared for tomography using conventional protocols for good structural preservation (Ricci et al. 2004). To survey the preservation quality of the oocytes, thin-sectioned materials (−80 nm) were examined using a JEOL 1200FX electron microscope. Three-dimensional reconstructions of portions of the cell containing mitochondria were generated using standard techniques (Perkins et al. 2003). Sections with a thickness between 300-500 nm were cut out, and stained for 30 min in 2% aqueous uranyl acetate, followed by 30 min in lead salts. Next, fiducial cues consisting of 20 nm colloidal gold particles were deposited on both sides of each section.
For each reconstruction, a series of images at regular tilt increments were collected with a JEOL 4000EX intermediate-voltage electron microscope operated at 400 kV. In order to limit anisotropic specimen thinning during image collection, the specimens were irradiated before initiating a tilt series. […] Tilt series were recorded at a magnification of 20,000× with an angular increment of 2° from −60° to +60° about an axis perpendicular to the optical axis of the microscope using a computer-controlled goniometer to achieve accurate increments at each angular step. […]

[4] = system: AKR/J oocytes; test: Apoptosis in cultured AKR/J oocytes; conditions: microinjection; versus non-injected and BSA-injected oocytes
Protocol: as §1, §2

[5] = system: AKR/J zygotes; test: Preimplantation embryonic development of in-vitro fertilized AKR/J oocytes to the blastocyst stage
Protocol: In-vitrofertilization and embryo culture: Female mice were superovulated as described above and cumulus-oocyte complexes from the indicated strains were mixed with capacitated sperm collected from adult male mice of the respective strain for in-vitro fertilization (Morita et al. 2000). After 2 h, the cumulus-oocyte complexes were washed and maintained in KSOM medium (Specialty Media, Phillipsburg, N.J.) to determine fertilization rates and monitor embryonic progression. Since zygotes progress to the blastocyst stage of development within 96 h and begin hatching, embryos were fixed at this time and stained with the DNA-binding dye Hoechst 33342 (Sigma) for light and fluorescence microscopic analysis of blastocyst cell number and quality. Apoptosis analyses: Oocytes were evaluated as described (Perez et al. 1997; Perez et al. 1999; Mortia et al. 2000) for characteristics of apoptosis, including morphological changes (e.g., cellular condensation, budding and fragmentation) and biochemical alterations (i.e., DNA cleavage using Comet Assay Kit; Trevigen, Gaithersburg, Md.). Analysis of DNA “comets” to generate quantitative data on the percent of undamaged versus damaged DNA was performed using the VisComet program (Impuls Computergestutzte Bildanalyse GmbH, Gilching, Germany). […]

[6] = system: FVB oocytes; test: Apoptosis in cultured FVB oocytes; conditions: microinjection; 24 h in vitro
Protocol: as §1, §2

[7] = system: AKR/J oocytes; test: Comet assay of DNA damage in cultured AKR/J oocytes after microinjection; conditions: 6 h culture after microinjection, versus non-injected AKR/J oocytes
Protocol: as §1, §2

Q: Which “reduction of ROS content” value [1] does the source give for `C=C(C)[C@H]1Cc2c(ccc3c2O[C@@H]2COc4cc(OC)c(OC)cc4[C@@H]2C3=O)O1` [rotenone] here?
A: 54%

Q: How did the “reduction of ROS content” value [1] turn out when `CC[C@H]1/C=C/C=C/C[C@@H](C)[C@H](O)[C@@](C)(O)C(=O)[C@@H](C)[C@H](O)[C@@H](C)C(=O)[C@@H](C)[C@H](O)[C@@H](C)/C=C/C(=O)O[C@@H]2[C@H](C)[C@H](CC1)O[C@]1(CC[C@H](C)[C@H](C[C@@H](C)O)O1)[C@H]2C` [oligomycin] was run?
A: 70%

Q: For “cytochrome c: cytochrome c microinjected into oocytes (6 pl of a 400 μM stock)”, which “apoptosis in B6C3F1 oocytes” value ([2]; subsequent 24 h culture) is on record?
A: did not affect the incidence of apoptosis

Q: antimycin-A was tested. Which “reduction of ROS content” value [1] did it give?
A: 70%

Q: `CC(=O)C(=O)O` [pyruvate] was tested. Which “reduction in number of abnormal mitochondria in FVB oocytes” value [3] did it give?
A: more than 75%

B1: Rad51: recombinant Rad51 DNA repair protein (Kurumizaka et al. 1999), microinjected (protein, UniProt Q06609 2-339, looked up)
DNA repair protein RAD51 …: AMQMQLEANADTSVEEESFGPQPISRLEQCGINANDVKKLEEAGFHTVEAVAYAPKKELINIKGISEAKADKILAEAAKLVPMGFTTATEFHQRRSEIIQITTGSKELDKLLQGGIETGSITEMFGEFRTGKTQICHTLAVTCQLPIDRGGGEGKAMYIDTEGTFRPERLLAVAERYGLSGSDVLDNVAYARAFNTDHQTQLLYQASAMMVESRYALLIVDSATALYRTDYSGRGELSARQMHLARFLRMLLRLADEFGVAVVITNQVVAQVDGAAMFAADPKKPIGGNIIAHASTTRLYLRKGRGETRICKIYDSPCLPEAEAMFAINADGVGDAKD
Q: For B1, which “apoptosis in AKR/J oocytes” value [4] is on record?
A: significantly suppressed apoptosis

Q: And the “blastocyst formation rates of AKR/J zygotes” value ([5]; microinjection into AKR/J zygotes, compared with C57BL/6 zygotes)?
A: levels not different from those observed with C57BL/6 zygotes

Q: What about the “microinjected AKR/J zygotes completing development to the blastocyst stage” value ([5]; microinjection into fertilized AKR/J oocytes, untreated less than 10%) of the same molecule?
A: more than 30%

Q: What about the “incidence of apoptosis in FVB oocytes” value [6] of the same molecule?
A: no effect

Q: What about the “extent of DNA damage” value [7] of the same molecule?
A: decreased the extent of DNA damage

B2: Smac/DIABLO: recombinant death-promoting protein released along with cytochrome c from mitochondria (protein, UniProt Q9NR28 22-239, looked up)
Diablo IAP-binding …: LCVPVVANFKKRCFSELIRPWHKTVTIGFGVTLCAVPIAQKSEPHSLSSEALMRRAVSLVTDSTSTFLSQTTYALIEAITEYTKAVYTLTSLYRQYTSLLGKMNSEEEDEVWQVIIGARAEMTSKHQEYLKLETTWMTAVGLSEMAAEAAYQTGADQASITARNHIQLVKLQVEEVHQLSRKAETKLAEAQIEELRQKTQEEGEERAESEQEAYLRED
Q: For B2, which “increase in incidence of apoptosis in B6C3F1 oocytes” value ([2]; 24 h culture) is on record?
A: ~3 fold
